The target in this assay is SpyCatcher-VLP (virus-like particle of SpyCatcher-HBc) (Hepatitis B virus). The assay is described as follows: cryo-EM structure.

Turning to “SpyCatcher-VLP (virus-like particle of SpyCatcher-HBc)”, the stoichiometry N (monomers per VLP) was found to be 180.

Values taken from doi:10.1101/2024.01.20.576357.
